Test results published in patent publication US20100150906A1 (AC IMMUNE S A, published 2010).
No end group written: not given here.

Legend:
[1] = biological target: peptide A16 of the second library (aa 12-20, K16 to alanine) (biotinylated (position not given)); assay: ELISA on biotinylated peptides on streptavidin plates
Description: (§1) Epitope mapping of the monoclonal antibody mACI-01-Ab7 C2 was performed by ELISA using three different peptide libraries. One library comprises a total of 33 biotinylated peptides covering the complete amino acid (aa) sequence of Aβ1-42 (produced by Mimotopes and purchased from ANAWA Trading SA), the second library contains biotinylated peptides using peptide 12 (aa12-20 of Aβ) from the first peptide library and substituting each amino acid in the sequence by an alanine (see […] below), and the third library contains biotinylated peptides 13, 14, or 15 (aa 13-21, 14-22 or 15-23 of Aβ) and substituting in each case the last amino acids to an alanine or to a glycine for aa 21 which is already an alanine (see table 5 below). A biotinylated complete Aβ1-42 peptide was used as positive control (Bachem). Epitope mapping was done according to the manufacturer's (Mimotopes) instructions. Briefly, Streptavidin coated plates (NUNC) were blocked with 0.1% BSA in PBS overnight at 4° C. After washing with PBS-0.05% Tween 20, plates were coated for 1 hour at RT with the different peptides from the library, diluted in 0.1% BSA, 0.1% Sodium Azide in PBS to a final concentration of 10 μM. After washing, plates were incubated for 1 hour at RT with the mACI-01-Ab7 C2 antibody or an isotype control mouse IgG2b antibody, diluted to 10 μg/ml in 2% BSA, 0.1% Sodium Azide in PBS. Plates were washed again and incubated with alkaline phosphatase conjugated goat anti mouse IgG for 1 h at RT.

[2] = biological target: T1, peptide A17 of the second library (aa 12-20, L17 to alanine) (also: biotinylated, position not given here); assay: as above
T1 peptide: VHHQKAVFF
Description: as §1

[3] = biological target: peptide A19 of the second library (aa 12-20, F19 to alanine) (biotinylated (position not given)); assay: as above
Description: as §1

[4] = biological target: T2, peptide A20 of the second library (aa 12-20, F20 to alanine) (also: biotinylated, position not given here); assay: as above
T2 peptide: VHHQKLVFA
Description: as §1

[5] = biological target: T3, amyloid beta 1-42 monomers (UniProt P05067 672-713); assay: ELISA on coated amyloid (55 µg/ml); mC2 at 0.156 ug/ml
T3 construct: domain: amyloid beta 1-42; also called Aβ1-42 monomers; amyloid monomers
Description: (§2) In order to evaluate the specificity of mC2 to different stages of polymerized amyloid protein, monomeric, polymeric soluble and fibrillic amyloid, an ELISA coated with these different stages of polymeric beta-amyloid was performed (FIG. 9). Monomers were prepared according to a modified method published by (Klein, 2002), soluble polymeric amyloid beta according to (Barghorn et al., 2005), whereas fibers were performed by incubation of amyloid (Bachem, Switzerland) with a final concentration of 1 μg/μl in Tris/HCl pH 7.4 at 37° C. for 5 days followed by a centrifugation step (10,000 rpm for 5 minutes). Then amyloid polymers were coated on an ELISA plates with a final concentration of 55 μg/ml and binding affinity ELISA by using an anti-mouse IgG monoclonal antibody (Jackson) labelled with alkaline phosphate was performed.

amyloid beta 1-42 fibers [6] = biological target: T4, amyloid beta 1-42 fibers (UniProt P05067 672-713); assay: as above
T4 construct: domain: amyloid beta 1-42; Many copies per fiber; also called Aβ1-42 fibers; fibrillar Aβ1-42
Description: as §2

[7] = biological target: T5, soluble polymeric amyloid beta (oligomers) (UniProt P05067 672-713); assay: as above
T5 construct: domain: amyloid beta 1-42; also called amyloid oligomers; Abeta oligomer
Description: as §2

[8] = biological target: T6, peptide 12 of the first library (aa 12-20 of Aβ) (also: biotinylated, position not given here); assay: ELISA on biotinylated peptides on streptavidin plates, antibody at 10 µg/ml
T6 construct: also called p12-20; Aβ12-20
T6 peptide: VHHQKLVFF
Description: as §1

[9] = biological target: T7, peptide 13 of the first library (aa 13-21 of Aβ) (also: biotinylated, position not given here); assay: as above
T7 construct: also called p13-21; Amyloid beta 13-21
T7 peptide: HHQKLVFFA
Description: as §1

[10] = biological target: T8, peptide 14 of the first library (aa 14-22 of Aβ) (also: biotinylated, position not given here); assay: as above
T8 construct: also called p14-22
T8 peptide: HQKLVFFAE
Description: as §1

[11] = biological target: T9, peptide 15 of the first library (aa 15-23 of Aβ) (also: biotinylated, position not given here); assay: as above
T9 construct: also called p15-23
T9 peptide: QKLVFFAED
Description: as §1

amyloid beta 1-42 fibers [12] = biological target: T4, amyloid beta 1-42 fibers; assay: SPR (BIACORE), Aβ1-42 fibers immobilized on CM5 chip, antibody 0.05-1.0 µM
Description: BIACORE® technology utilizes changes in the refractive index at the surface layer upon binding of the antibody to the antigen immobilized on the layer. Binding is detected by surface plasmon resonance (SPR) of laser light refracting from the surface. Analysis of the signal kinetics on rate and off rate allows the discrimination between non-specific and specific interaction. The concentration of antibody used was in the range of 0.05 μM to 1.0 μM.

T4 sequence (P05067 672-713 limits assumed): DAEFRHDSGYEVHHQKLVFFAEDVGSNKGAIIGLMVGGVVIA
T5 sequence (P05067 672-713 limits assumed): as above
T3 sequence (P05067 672-713 limits assumed): as above

binding result [1]: no binding (tested: 10 µg/ml)
binding result [2]: no binding (tested: 10 µg/ml)
binding result [3]: no binding (tested: 10 µg/ml)
binding result [4]: no binding (tested: 10 µg/ml)
O.D [5]: 0.397 O.D
O.D (amyloid beta 1-42 fibers [6]): 0.631 O.D
O.D [7]: 1.04 O.D
binding result [8]: binds
binding result [9]: binds
binding result [10]: binds
binding result [11]: binds
Kd (amyloid beta 1-42 fibers [12]): 41 nM
koff (amyloid beta 1-42 fibers [12]): 0.00099 s⁻¹
kon (amyloid beta 1-42 fibers [12]): 24000 M⁻¹ s⁻¹
B1: mouse monoclonal antibody ACI-01-Ab7C2 (antibody, V domains shown)
VH: EVQLVESGGGLVQPGGSLKLSCAASGFTFSSYGMSWVRQTPDKRLELVASINSNGGSTYYPDSVKGRFTISRDNAKNTLYLQMSSLKSEDTAMYYCASGDYWGQGSTLTVSS
VL: DVVMTQTPLSLPVSLGDQASISCRSSQSLVYSNGDTYLHWYLQKPGQSPKLLIYKVSNRFSGVPDRFSGSGSGTDFTLKISRVEAEDLGVYFCSQSTHVPWTFGGGTKLEIK
notes: also called mC2; mACI-01-Ab7 C2
